# Assay results reported in patent US20230212319A1, “NOVEL ANTIGEN BINDING DOMAINS AND SYNTHETIC ANTIGEN RECEPTORS INCORPORATING THE SAME” (University of Southern California, priority 2020, published 2023).
# Tests used:
# SKOV3-Luc cells = assay: SKOV3 xenograft in NSG mice; conditions: for tumor inhibition / protection, SKOV3 xenograft: 1 × 10^6 SKOV3-Luc s.c., a week later 3 × 10^6 SAR-T i.v.; for survival, SKOV3 xenograft: mouse, in vivo
# RAJI-CD19-KO cells = assay: JNG assay, co-culture with RAJI-CD19-KO cells; type: cell-based; conditions: co-culture with Raji-CD19-KO
# Method in brief: (§1)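 Jurkat NFAT-GFP (JNG) cells stably transduced with SARs by lentivirus, with drug selection where the construct carried a resistance gene, then co-cultured with target cells at E:T ~1:2 for ~4–18 h. % GFP-positive cells measured by FACS against parental JNG; +/- to 5+ correspond to ~5–50% GFP-positive.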
# Nalm6 cells = assay: JNG assay, co-culture with Nalm6 cells; type: cell-based; conditions: co-culture with Nalm6
# Method in brief: (§2)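 Read-out is % GFP-positive cells by flow cytometry after ~4–18 h co-culture (E:T ≈1:2) of target lines with SAR-transduced, puromycin/blasticidin-selected JNG cells. Grades +/-, +, 2+…5+ correspond to approximately 5%, 10%, 20%, 30%, 40%, 50% GFP+ over parental JNG controls.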
# LNCaP cells = assay: JNG assay, co-culture with LNCaP cells; type: cell-based; conditions: co-culture with LNCaP
# Method in brief: as §2
# RS;411 = assay: JNG assay, co-culture with RS;411 cells; type: cell-based; conditions: co-culture with RS411
# Method in brief: as §1
# L363 cells = assay: JNG assay, co-culture with L363 cells; type: cell-based; conditions: co-culture with L363
# Method in brief: as §1
Molecule,"tumor inhibition / protection, SKOV3 xenograft (SKOV3-Luc cells)","survival, SKOV3 xenograft (SKOV3-Luc cells)",further results
"10315 (protein, Synthetic Polynucloetide) MALPVTALLLPLALLLHAARPDIQMTQSPSSLSASVGDRVTITCKSSQSLLYSSNQKNYLAWFQQKPGKAPKLLIYWASTRESGVPSRFSGSGSGTDFTLTISSLQPEDFATYFCHQYLSSYTFGQGTKVEIKRLEDLKNVFPPEVAVFEPSEAEISHTQKATLVCLATGFYPDHVELSWWVNGKEVHSGVCTDPQPLKEQPALNDSRYCLSSRLRVSATFWQNPRNHFRCQVQFYGLSENDEWTQDRAKPVTQIVSAEAWGRADCGFTSESYQQGVLSATILYEILLGKATLYAVLVSALVLMAMVKRKDSRGRAKRSGSGATNFSLLKQAGDVEENPGPTSMDWIWRILFLVGAATGAHSFEEVQLVESGGGLVQPGGSLRLSCAASGYTFTSYWLHWVRQAPGKGLEWVGYIRPSTGYTEYNQKFKDRFTISADTSKNTAYLQMNSLRAEDTAVYYCARSRWLLDYWGQGTLVTVSSTRIQNPDPAVYQLRDSKSSDKSVCLFTDFDSQTNVSQSKDSDVYITDKCVLDMRSMDFKSNSAVAWSNKSDFACANAFNNSIIPEDTFFPSPESSCDVKLVEKSFETDTNLNFQNLSVIGFRILLLKVAGFNLLMTLRLWSS",tumor inhibition,improvement in survival,–
"10453 (protein, Synthetic Polynucloetide) MALPVTALLLPLALLLHAARPEVQLVESGGGLVQPGGSLRLSCAASGYTFTTYWMHWVRQAPGKGLEWVGYIRPSTGYTEYNQKFKDRFTISADTSKNTAYLQMNSLRAEDTAVYYCARSRWLLDYWGQGTLVTVSLEDLKNVFPPEVAVFEPSEAEISHTQKATLVCLATGFYPDHVELSWWVNGKEVHSGVCTDPQPLKEQPALNDSRYCLSSRLRVSATFWQNPRNHFRCQVQFYGLSENDEWTQDRAKPVTQIVSAEAWGRADCGFTSESYQQGVLSATILYEILLGKATLYAVLVSALVLMAMVKRKDSRGRAKRSGSGATNFSLLKQAGDVEENPGPTSMDWIWRILFLVGAATGAHSFEDIQMTQSPSSLSASVGDRVTITCKSSQSLLYSSNQKNYLAWFQQKPGKAPKLLIYWASTRESGVPSRFSGSGSGTDFTLTISSLQPEDFATYFCHQYLSSYTFGQGTKVEIKRTRIQNPDPAVYQLRDSKSSDKSVCLFTDFDSQTNVSQSKDSDVYITDKCVLDMRSMDFKSNSAVAWSNKSDFACANAFNNSIIPEDTFFPSPESSCDVKLVEKSFETDTNLNFQNLSVIGFRILLLKVAGFNLLMTLRLWSS",tumor inhibition,improvement in survival,–
"10518 (protein, Synthetic Polynucloetide) MALPVTALLLPLALLLHAARPEVQLVESGGGLVQPGGSLRLSCAASGYTFSDYFMSWVRQAPGKGLEWVATISNGGTYTYYPDSVKGRFTISRDNSKNTLYLQMNSLRAEDTAVYYCARFDGYIFDYWGQGTLVTVSSGGGGSGGGGSGGGGSDIQMTQSPSSLSASVGDRVTITCRASQDISNYLNWYQQKPGKAPKLLIYYTSRLHSGVPSRFSGSGSGTDFTLTISSLQPEDFATYYCQQGNTLPYTFGQGTKVEIKRTREQKLISEEDLAKPTTTPAPRPPTPAPTIASQPLSLRPEACRPAAGGAVHTRGLDFACDIYIWAPLAGTCGVLLLSLVITLYCKRGRKKLLYIFKQPFMRPVQTTQEEDGCSCRFPEEEEGGCELRVKFSRSADAPAYQQGQNQLYNELNLGRREEYDVLDKRRGRDPEMGGKPRRKNPQEGLYNELQKDKMAEAYSEIGMKGERRRGKGHDGLYQGLSTATKDTYDALHMQALPPR",weak protection,–,–
"10587 (protein, Synthetic Polynucloetide) MALPVTALLLPLALLLHAARPEVQLVESGGGLVQPGGSLRLSCAASGFTFSDYFMSWVRQAPGKGLEWVATISNGGTYTYYPDSVKGRFTISRDNSKNTLYLQMNSLRAEDTAVYYCARFDGYIFDYWGQGTLVTVSSGGGGSGGGGSGGGGSDIQMTQSPSSLSASVGDRVTITCRASQDISSYLNWYQQKPGKAPKLLIYYTSRLHSGVPSRFSGSGSGTDFTLTISSLQPEDFATYYCQQGNTLPYTFGQGTKVEIKRTREQKLISEEDLAKPTTTPAPRPPTPAPTIASQPLSLRPEACRPAAGGAVHTRGLDFACDIYIWAPLAGTCGVLLLSLVITLYCKRGRKKLLYIFKQPFMRPVQTTQEEDGCSCRFPEEEEGGCELRVKFSRSADAPAYQQGQNQLYNELNLGRREEYDVLDKRRGRDPEMGGKPRRKNPQEGLYNELQKDKMAEAYSEIGMKGERRRGKGHDGLYQGLSTATKDTYDALHMQALPPR",weak protection,–,–
"10656 (protein, Synthetic Polynucloetide) MALPVTALLLPLALLLHAARPEVQLVESGGGLVQPGGSLRLSCAASGFTFSDYFMSWVRQAPGKGLEWVATISNGGTYTYYPDSVKGRFTISRDNSKNTLYLQMNSLRAEDTAVYYCARFDGYIFDYWGQGTLVTVSSGGGGSGGGGSGGGGSDIQMTQSPSSLSASVGDRVTITCRASQDISNYLNWYQQKPGKAPKLLIYYTSRLHSGVPSRFSGSGSGTDFTLTISSLQPEDFATYYCQQGNTLPWTFGQGTKVEIKRTREQKLISEEDLAKPTTTPAPRPPTPAPTIASQPLSLRPEACRPAAGGAVHTRGLDFACDIYIWAPLAGTCGVLLLSLVITLYCKRGRKKLLYIFKQPFMRPVQTTQEEDGCSCRFPEEEEGGCELRVKFSRSADAPAYQQGQNQLYNELNLGRREEYDVLDKRRGRDPEMGGKPRRKNPQEGLYNELQKDKMAEAYSEIGMKGERRRGKGHDGLYQGLSTATKDTYDALHMQALPPR",weak protection,–,–
"10384 (protein, Synthetic Polynucloetide) MALPVTALLLPLALLLHAARPDIQMTQSPSSLSASVGDRVTITCKSSQSVLYSSNQKNYLAWFQQKPGKAPKLLIYWASTRESGVPSRFSGSGSGTDFTLTISSLQPEDFATYFCHQYLSSYTFGQGTKVEIKRLEDLKNVFPPEVAVFEPSEAEISHTQKATLVCLATGFYPDHVELSWWVNGKEVHSGVCTDPQPLKEQPALNDSRYCLSSRLRVSATFWQNPRNHFRCQVQFYGLSENDEWTQDRAKPVTQIVSAEAWGRADCGFTSESYQQGVLSATILYEILLGKATLYAVLVSALVLMAMVKRKDSRGRAKRSGSGATNFSLLKQAGDVEENPGPTSMDWIWRILFLVGAATGAHSFEEVQLVESGGGLVQPGGSLRLSCAASGFTFTTYWMHWVRQAPGKGLEWVGYIRPSTGYTEYNQKFKDRFTISADTSKNTAYLQMNSLRAEDTAVYYCARSRWLLDYWGQGTLVTVSTRIQNPDPAVYQLRDSKSSDKSVCLFTDFDSQTNVSQSKDSDVYITDKCVLDMRSMDFKSNSAVAWSNKSDFACANAFNNSIIPEDTFFPSPESSCDVKLVEKSFETDTNLNFQNLSVIGFRILLLKVAGFNLLMTLRLWSS",tumor inhibition,improvement in survival,–
22178 (protein) MALPVTALLLPLALLLHAARPEVQLVESGGGVVQPGRSLRLSCAASGFSFSGYGMHWVRQAPGKGLEWVAYISYDGSNKYYADSVKGRFTISRDNSKNTLYLQMNSLRAEDTAVYYCAKDPAWGLRLGESSSYDFDIWGQGTMVTVSSGTGGGGSGGGGSGGGGSEFDIQMTQSPSSLSASVGDRVTITCKASDHINNWLAWYQQKPGQAPKLLIYGATTLETGVPSRFSGSGSGTDYTLTISSLQPEDFATYYCQQSWNTPWTFGQGTKLEIKRLEDLKNVFPPEVAVFEPSKAEIAHTQKATLVCLATGFYPDHVELSWWVNGKEVHSGVCTDPQPLKEQPALNDSRYCLSSRLRVSATFWQNPRNHFRCQVQFYGLSENDEWTQDRAKPVTQIVSAEAWGRADCGITSASYHQGVLSATILYEILLGKATLYAVLVSALVLMAMVKRKDSRGRAKRSGSGATNFSLLKQAGDVEENPGPTSATMDWIWRILFLVGAATGAHSGPQVQLQESGGGLAQAGGSLRLSCAASGRTFSMGWFRQAPGKEREFVAAITYSGGSPYYASSVRGRFTISRDNAKNTVYLQMNSLKPEDTAVYYCAANPTYGSDWNAENWGQGTQVTVSSGSGGGGSGGGGSGGGGSFEQVQLQQPGAELVKPGASVKMSCKASGYAFSSYWINWMKQKPGQGLEWIGQIYPGDGDTNYNGKFKGRATLTADTSSSTAYMQLSSLTSEDSAVYFCARSITTVVGCAMDYWGQGTSVTVSSTRIQNPDPAVYQLRDSKSSDKSVCLFTDFDSQTNVSQSKDSDVYITDKCVLDMRSMDFKSNSAVAWSNKSDFACANAFNNSIIPEDTFFPSSDVPCDVKLVEKSFETDTNLNFQNLSVIGFRILLLKVAGFNLLMTLRLWSSRAKRSGSGVKQTLNFDLLKLAGDVESNPGPSRGHMTEYKPTVRLATRDDVPRAVRTLAAAFADYPATRHTVDPDRHIERVTELQELFLTRVGLDIGKVWVADDGAAVAVWTTPESVEAGAVFAEIGPRMAELSGSRLAAQQQMEGLLAPHRPKEPAWFLATVGVSPDHQGKGLGSAVVLPGVEAAERAGVPAFLETSAPRNLPFYERLGFTVTADVEVPEGPRTWCMTRKPGA,–,–,"NFAT-GFP ASSAY: Raji-CD19-KO (RAJI-CD19-KO cells): 5+ (refer to approximately 5%, 10%, 20%, 30%, 40% and 50% GFP positive cells); NFAT-GFP ASSAY: Nalm6 (Nalm6 cells): 5+ (refer to approximately 5%, 10%, 20%, 30%, 40% and 50% GFP positive cells); NFAT-GFP ASSAY: LNCaP (LNCaP cells): 5+ (refer to approximately 5%, 10%, 20%, 30%, 40% and 50% GFP positive cells); NFAT-GFP ASSAY: RS411 (RS;411): + (refer to approximately 5%, 10%, 20%, 30%, 40% and 50% GFP positive cells); NFAT-GFP ASSAY: L363 (L363 cells): +/- (refer to approximately 5%, 10%, 20%, 30%, 40% and 50% GFP positive cells)"
